Measurements: patent US20140335107A1 (published 2014)
Positions count from the first letter of the chain named. Where no end group is shown, it is not given here.

B1: murine anti-CD79b monoclonal antibody MA79b (antibody, V domains shown)
VH: EVQLQQSGAELMKPGASVKISCKATGYTFSSYWIEWVKQRPGHGLEWIGEILPGGGDTNYNEIFKGKATFTADTSSNTAYMQLSSLTSEDSAVYYCTRRVPVYFDYWGQGTSVTVSS
VL: DIVLTQSPASLAVSLGQRATISCKASQSVDYDGDSFLNWYQQKPGQPPKLFIYAASNLESGIPARFSGSGSGTDFTLNIHPVEEEDAATYYCQQSNEDPLTFGAGTELELKR
B2: huMA79b graft variant with HVR-L2 of SEQ ID NO: 22 (huMA79b L2-2), Fab (Fab, V domains shown)
VH: EVQLVESGGGLVQPGGSLRLSCAASGYTFSSYWIEWVRQAPGKGLEWVGEILPGGGDTNYNEIFKGRFTISADTSKNTAYLQMNSLRAEDTAVYYCTRRVPVYFDYWGQGTLVTVSS
VL: DIQMTQSPSSLSASVGDRVTITCKASQSVDYDGDSFLNWYQQKPGKAPKLLIYAARKLGRGVPSRFSGSGSGTDFTLTISSLQPEDFATYYCQQSNEDPLTFGQGTKVEIKR
B3: MA79b-grafted humanized antibody variant L2-2 (huMA79b L2-2), IgG (antibody, V domains shown)
VH: B2 VH
VL: B2 VL
B4: hu MA79b H1-6 (IgG) (antibody, V domains shown)
VH: B2 VH with T28P, S30T, S31R, E35N
VL: B2 VL with R56S, K57N, G59E, R60S
B5: MA79b (Fab) (antibody, V domains shown)
VH: B1 VH
VL: DIVLTQSPASLAVSLGQRATISCKASQSVDYDGDSFLNWYQKPGQPPKLFIYAASNLESGIPARFSGSGSGTDFTLNIHPVEEEDAATYYCQQSNEDPLTFGAGTELELKR
B6: hu MA79b H3-10 (IgG) (antibody, V domains shown)
VH: B2 VH with V102I, Y103R, F104L
VL: B2 VL with R56S, K57N, G59E, R60S
B7: MA79b-grafted humanized antibody variant L2/H3 (huMA79b L2/H3), IgG (antibody, V domains shown)
VH: B2 VH with V102I, Y103R, F104L
VL: B2 VL
B8: MA79b-grafted humanized antibody (huMA79b graft), IgG (antibody, V domains shown)
VH: B2 VH
VL: B2 VL with R56S, K57N, G59E, R60S

Tests used:
[1] = target: T1, extracellular domain of human CD79b fused to Fc (huCD79becd-Fc) (UniProt P40259 29-159); assay: Biacore; IgG
T1 chain: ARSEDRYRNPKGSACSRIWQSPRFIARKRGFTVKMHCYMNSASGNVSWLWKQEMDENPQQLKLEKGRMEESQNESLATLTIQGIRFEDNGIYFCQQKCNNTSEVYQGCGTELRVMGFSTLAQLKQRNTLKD

[2] = target: T2, extracellular domain of human CD79b (huCD79becd) (UniProt P40259 29-159); assay: Biacore; IgG
T2 chain: T1 chain

[3] = target: T1, extracellular domain of human CD79b …; assay: Biacore; Fab
[4] = target: T2, extracellular domain of human CD79b …; assay: Biacore; Fab
[5] = target: T3, 16 amino acid peptide containing the epitope for MA79b (ARSEDRYRNPKGSACK) (also: biotinylated (site not given here)); assay: Biacore; IgG
T3 peptide: ARSEDRYRNPKGSACK

Binder	Kd [2] [nM]	further results
B1	4.7	Kd [1]: 2 nM
B2		Kd [3]: 44 nM; Kd [4]: 39 nM
B3	43	
B4	42	
B5		Kd [3]: 200 nM
B6	29	
B7	3	Kd [1]: 2 nM; Kd [5]: 1 nM
B8	261	
